Assay results: US20250049939A1, “NOVEL FLT3 ANTIBODIES AND ANTIBODY-DRUG-CONJUGATES BASED THEREON, THERAPEUTIC METHODS AND USES THEREOF IN COMBINATION WITH TYROSINE KINASE INHIBITORS” (TUBULIS GmbH, priority 2021, published 2025)
Each block holds one molecule with its values, some of them ahead of it.

How the values were obtained:
[1] = test system: MOLM-13 (FLT3 positive) cells; assay: Temperature induced internalization in MOLM-13, flow cytometry; format: cell-based, human; conditions: 30 min at 37° C. compared to 4° C.
Method: (§1) For antibody binding studies, cells were stained on ice with primary mouse, rat or human anti-FLT3 antibodies (in house) and secondary antibody Goat F(ab′)2 Anti-Human Ig-PE (2012-09), Goat Anti-Mouse IgG (H+L)-PE (1032-09) or Goat Anti-Rat IgG (H+L)-PE (3052-09) purchased from Southern Biotech. For internalization experiments, cells incubated with anti-FLT3 antibodies were washed and incubated for 30 min at 4° C. or 37° C. followed by staining with secondary antibody.

[2] = target: T1, human wildtype FLT3 (hFLT3 wt) (Homo sapiens, UniProt P36888); assay: Cell surface binding to Ba/F3 hFLT3 wt, flow cytometry
T1 construct: expressed in transfected cells; host or cells: Ba/F3 cells, retrovirally transduced with MSCV-IRES-YFP (pMIY) vector
T1 sequence (P36888 27-993): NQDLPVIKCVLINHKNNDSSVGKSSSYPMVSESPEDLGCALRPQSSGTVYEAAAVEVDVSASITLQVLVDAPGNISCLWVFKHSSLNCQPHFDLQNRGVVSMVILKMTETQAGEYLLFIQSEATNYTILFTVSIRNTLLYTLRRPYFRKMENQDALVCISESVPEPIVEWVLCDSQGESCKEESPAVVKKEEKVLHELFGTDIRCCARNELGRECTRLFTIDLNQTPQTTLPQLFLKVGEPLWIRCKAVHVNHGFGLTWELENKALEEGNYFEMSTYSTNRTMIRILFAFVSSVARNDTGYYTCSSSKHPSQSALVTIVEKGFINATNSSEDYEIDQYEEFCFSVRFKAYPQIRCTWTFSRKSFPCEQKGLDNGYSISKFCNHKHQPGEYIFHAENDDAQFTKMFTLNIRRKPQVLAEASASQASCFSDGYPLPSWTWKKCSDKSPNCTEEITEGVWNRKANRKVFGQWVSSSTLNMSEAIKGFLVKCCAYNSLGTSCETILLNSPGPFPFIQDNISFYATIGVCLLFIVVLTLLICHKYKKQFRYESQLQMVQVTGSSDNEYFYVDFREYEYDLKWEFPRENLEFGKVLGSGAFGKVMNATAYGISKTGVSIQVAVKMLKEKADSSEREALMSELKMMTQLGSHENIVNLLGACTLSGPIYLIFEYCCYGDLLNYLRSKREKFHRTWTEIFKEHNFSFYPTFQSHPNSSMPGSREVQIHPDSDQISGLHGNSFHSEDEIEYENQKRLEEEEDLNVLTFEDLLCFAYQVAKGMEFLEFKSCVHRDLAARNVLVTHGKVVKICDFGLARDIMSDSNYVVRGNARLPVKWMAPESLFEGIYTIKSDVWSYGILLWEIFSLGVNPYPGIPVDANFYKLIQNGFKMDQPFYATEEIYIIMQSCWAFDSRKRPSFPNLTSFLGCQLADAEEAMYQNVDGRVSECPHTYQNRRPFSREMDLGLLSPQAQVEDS
Method: as §1
(§2) For FLT3 expression analysis, cells were stained on ice with primary mouse anti-FLT3-AF647 antibodies for 30 min. For antibody binding studies, cells were stained on ice with chimeric (20D9) or humanized anti-FLT3 antibodies (in house) or IgG1 control with or without Leu234Ala/Leu235Ala (LALA)-mutation in the Fc region and secondary antibody goat F(ab′)2 Anti-Human IgG-AF647 (2042-31) purchased from Southern Biotech for 30 min, respectively. Binding and expression were subsequently measured at the flow cytometer (BD FACSCanto II) and the results were evaluated with FlowJo version 10.8.1.

cynomolgus monkey FLT3 = assay: Cell surface binding to Ba/F3 cynoFLT3, flow cytometry
Method: as §1
Murine FLT3 (OMu21985D, Genescript), human CD64 (RC207487), CD32 (RC205786) and CD16 (RC206429), were purchased from Origene. Cynomolgues monkey FLT3 gene was synthesized from XM_015439107.1 by Eurofins. The constructs were cloned into retroviral expression vector MSCV-IRES-YFP (pMIY) using the In-Fusion HD Cloning Plus Kit (Takara Bio, Saint-Germain-en-Laye, France). All FLT3 point mutations were generated using the QuikChange II XL Site-Directed Mutagenesis Kit (Agilent Technologies, Santa Clara, CA, USA) and correct sequence was confirmed by Sanger sequencing. MSCV-IRES-YFP vectors with inserted human wildtype FLT3 and ITD (w51 and NPOS) mutated FLT3 has been described before (e.g., Opatz S, Polzer H, Herold T, et al. Exome sequencing identifies recurring FLT3 N676K mutations in core-binding factor leukemia. Blood. 2013; 122 (10): 1761-1769. doi: 10.1182/blood-2013-01-476473).
as §2

Binding to Ba/F3-FLT3 cell line by flow cytometry [2]: specifically bound
B1: 20D9: chimeric (rat variable regions, human IgG1) anti-FLT3 monoclonal antibody; VH SEQ ID NO: 5, VL SEQ ID NO: 6 (antibody, V domains shown)
VH: DVMLVESGGGLVQPGRSLKLSCVASGFTFNNYWMTWIRQAPGKGLEWIASITKTGGGTYYPDSVKGRFTISRDNAKSTLYLQMNSLRSEDTATYYCTTLQQLGVMDAWGQGASVTVSSA
VL: DVQMTQSPSVLSASVGDRITLNCKASQNINKELNWYQQKLGEAPKLLIYNTNNLQTGIPSRFSGSGSGTDYTLTISSLQPEDVATYFCFQHKSWPLTFGSGTKLEIKR
modifications: Clone 20D9, heavy chain variable region without a signal seqeunce; Clone 20D9, light chain variable region without a signal seqeunce
Internalization in MOLM-13 [1]: 64%
Binding to cynomolgus monkey FLT3 expressing Ba/F3 cell lines (cynomolgus monkey FLT3): bound
Cross reactivity for cyno (cynomolgus monkey FLT3): cross-reactive and yes

Binding to Ba/F3-FLT3 cell line by flow cytometry [2]: specifically bound
B2: 4B12: chimeric anti-FLT3 antibody from rat; VH SEQ ID NO: 9, VL SEQ ID NO: 10 (antibody, V domains shown)
VH: QVQLQQSGPGLVQPSQTLSLTCTVSGFSLTSYNVNWVRQPPGKGLEWIGAMWRGGGTDYNPALKSRLSISRDTSKSQVFLKMNRLQTEDTAIYFCTRGFGDYWGQGVMVTVSSA
VL: DIQMTQTPLSLSVAIGQSASISCKSSQSLKYSDGKTYLNWVFQSPGQSPKRLIYQVSKLDSGVPDRFSGTGSETDFTLKISRVEAEDLGVYYCCQGSYSPSTFGAGTKLELKR
modifications: Clone 4B12, heavy chain variable region without a signal sequence; Clone 4B12, light chain variable region without a signal seqeunce
Internalization in MOLM-13 [1]: 58%
Cross reactivity for cyno (cynomolgus monkey FLT3): cross-reactive and yes
